Measurements taken from the domain aggregation screens of Martell et al. (2025).

Experiment: soluble fraction after stress (log2 fold change); higher = more stays soluble; pooled small domains, quantitative proteomics
Settings: stress: 75 degC
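Also: 20 min heating vs room temperature control held 20 min.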

Sequence	soluble fraction (log2)
HMNTISEADAKRIALERAGLTAADYVKVDYDQDDNEYEVEMRSGNTEYEVKISGSTGAVLEYDSETD	-0.358
HMNTISTLEITTKKDIRILDESELLKSKSSKNNIFNYLLASGDFNLLKDKLNEIDEFSDEIISYQLN	-0.788
HMNTKQRTAVMRILKQSSDPVSADDVFAALKDEYPSLALSTVYRNLERFADESMVKKDVWSDGIVRYSLAD	-0.21
HMNTLGTNIAKLRESQKLTQEELGKLSGVSRVSIYKIETGQSTPRDTTLQNIAEALHTTPSALRS	0.0781
HMNTLLYAPKVSPNPFTPNADGINDVVNISYKLLRVISAVPISVEVFDLSGRLIKTLYSGVDPLGEY	0.194
HMNTLPASVQPKKGRLYAVIQTKENGKSKPVWRSLGLPEGSNKSKVNKAFREVVKQFEEEYAERLAR	-0.181
HMNTLPTDELMKYGIINEDLSFSKKLNADDIQKFLQGYTIVADNDKNRATFQLTENNTKLKVIFLER	-0.44
HMNTLRFPEGTPEKDRMSIILASYNSGIGHVNDARRLARLNGEDPNSWEVVARYLQLKAQPEYYESEAVK	-0.204
HMNTPAENFDKAVEKYKSTNSATEKDAAFKVIEDEWIKLSDEEKKERQDEYDSIFESEGDRV	0.0843
HMNTQGWEIFEGRITTADTDLNPSGWIRIDGQRIFVISDAGFIDKGKEVSILSVDGNRVLVRK	-0.646
HMNTSMIEHMDKSTFIRFVFTNPVTHDQAVAKLMEKHMWFSTEEKAEAEIDKLLNKTNSLIESGGKLTW	0.0867
HMNTTLQLDTILRLEKNAHLLENFVRAGFTDSELGKLTDADLLQIGVPKIGDRRRLLAALAERAH	-0.904
HMNTVSPAVSAQLRQELGGELNNANFQQLQQYLQAGQRDEAIVYLTSLGIESPRAVSIVNNAMDQIG	0.494
HMNVDIVEITKNSSPNQISKVIDIGAIQIVEDLMSFGIMKAIDTPLEDSEIEQLLEKYNLIVDLIE	-2.01
HMNVDSIPGKSGIVTQGIDNLKAMGRVTVNGMEWTARSKDGSLIEEGKVVRVYGVEGVKLIVEED	0.0811
HMNVDSLPGEKAVVIKTIDNLRGTGQAVVNGLEWSAKSKDETIIDEGKVVRIVAVEGVKLVVEEE	0.0298
HMNVEALIGREGRVTDKIEANGYGRVKVDGDSWKAKSANGAEIRQNTDVRILSIDSVIITVEP	-0.766
HMNVESLVGKQVIVSETIDNLKATGQVKVNGLEWTARAADETDIIPQGTEVTINEVSGVKLIVSR	0.0398
HMNVESMVGKQGKVVVEIDNISAKGMIKVDGMEWTARSVDGEIIPKDSLVAVVSVEGVKAMVRKAE	-0.106
HMNVGKRLKSLREKYKFSLEEVAKKIKSSAGAISRYENNERKINSESLIRLSNLYNVSPEYILYG	-0.621
HMNVKQALLELMQRKPELTGSAIARAIGYSPAVISQYLKDGYPGDVVKLTTLIGDFIRRIDEKERS	-0.526
HMNVKVYATIDGDNFKVSGLKPGSNVRVYSSNGSAVFEKKAGDSEMIIPAGAWTKGIYVISADDQSIKVT	-0.0855
HMNVLGQTAIVRSLRLDATFGEVLLADGGAGLIFKARTHGDETFKKGDRVVLLEYLKDQHAYRVISETDFL	-2.45
HMNVLLGISELSHATGVTPAQLRYWVSQGYIKNYGSNKKNKFSLETVFMVRSIKIFQNQGYTLSASAKRAA	-1.38
HMNVNFVQANLANLPNIQAIYQKGNEMLNDMKRGEAREIDEAYSRVDNGVGTEKDFKVLLSFRDKIIAAMQ	-0.112
HMNVNSMIGKEGRVIEDIDNFNETGRIIVDGMEWTARAVNEQSITSGQKVVIREIQGVKAMVVPM	0.115

Sequence	soluble fraction (log2)
HMNVNTNTILKSLMETYPDSTVFKKAEIVSIANSLGFKKSDYSPLTSTDNRTDVRGQYDLSAVIIPMRESN	-0.14
HMNVPYEMVTQNGEVFYKYKVQPGEGVFAVSRTFSVSVAEILRVNPEANKGLKNGQVLLIPVPKDMIA	-1.71
HMNVVGAKGRIIKISSSEEKMAVAEIEGHGEWNIRTNSEIELFVGKSVEVIEMKGNYLLVNQI	-3.01
HMNVWESVDLRQEQHEAKRRLILKQAALLFADRGFHETTIDQIAEALNVTKPTIYYYIESKEDLLYQVA	-0.135
HMNWQLITDPKELRELVQKTIADNEAGTSRLREGDMGPLEFLTGIIMKKTRGLADPTMVKALLKEELNI	-0.0208
HMNYEFLEKIGFSSNEAKVYGTLIKHKVLNGYEIAKLSGVARSLVYEVINRLVAKGAVIRIDGEPNFYKP	-2.2
HMNYHDTLSYLMDAFGGADNLQKLLGVGPSALSNYRRREHLPLNQARKLSNIAPEFGFNLDPYTLKISVID	-1.62
HMNYKLESYLKKVDDQLNFIPVSDKADILSELKNTFYERLLNGQTEEEILDEMESPRELALSYMSES	-0.00676
HMNYTYTVPEGIRYLRADKALALAFPDHSRTALQRAFDSGLVTLRGVAIKRDQSVTALDTLEFAMPDI	-0.981
HMNYVFVLNEHGVRQTSYVVGLHADTLEKTEKLAKQTYPTSTIISGDSEMQSQFISGKAYVNGEFVDP	-0.713
HMPAFWILAVLAGGRRHGYQIMREAALSSEGLVTLKPTTLYAALERLERDGAIQQDGEEIVDGRVRRYYRI	0.16
HMPAKDAEFTAFVRSATPTLTRTAYLLTGDRETASDLVQEAFVRTYLAWRRVRPEEATAYTRRVLVN	0.321
HMPAPMISIQLNGEPRNVQPGISIAALVREIGLEPAKVAVERNREIVPRSTLGDVLIEAGDQLEIVHFVG	-0.45
HMPAQPEPYNNLARLYSAQGKLDQAASLLRAGLYTDPAYRALFDNLTRIYAEQAARSLSAALD	-1.1
HMPASDPNEKQILRFLTEHQVITRKETQALLDVSQSTAGRVLKAMVDNGQIKQLGGSRNTRYELPM	-0.141
HMPASGISSEIIYDGILIEENLRQLKKDKAWLMDQLKKKGISSVSEVFLATLNKGGSLYIDKY	-0.451
HMPASVSAIRKYLGGGSFKGVGPALAKRIVDAFGEYTIETIENDPKQLAKVKGVSEKMALEINTQ	-0.582
HMPAYYQKEAVLDGRASVFAYERDPSSWYFKQLIPGTKKYRTKKIQGATTLEQAKSQALDIALGLRDEP	-0.0971
HMPDDHFIRGYVTAVLEQVLKVPSIQVEVERGVVILRGDLPGEERQELLDAVSRIHGVARVEYIPL	-0.686
HMPDLSGEEQQIVDILAQRGNLQINTLVVETDIPVHKMNAILFELEMKGVVRVLAGGMYQLL	-1.02
HMPDPLVEIRSAVHSNYAGMIAMLGADNRVYLGREEHYSYQDGQPGQYDNRDGSLLFVSDQPDIYYFL	-1.17
HMPEAITLRDLKTYSKQAASGYLDDHQLVLVEKEAHSEDVPEGQVIKQKPGAGASVKPGDKVEVTFSLGPE	0.0463
HMPEKKKYGDFVSMTEEEYGKLVSEYGQEAAKRMVEILNNYKGATGKPYKSDYLAILNWVVKRIKEE	-0.0863
HMPELFLFNPDTASAATFQALGFSARQAGVLIHFREALGGRFGSVEQFSKSYVVDSATLERLRPYMVF	-4.13
HMPEMHIYTKEGKIHITHIDENEEIKIYNPLGQIIYTGSPQDIPVLEGKGLYIIYIGKSAVEVLES	-2.2
HMPENESPEEKHARFRRFAEGLMARLDENESVRDILPELKVWLDDRELDRDDQRLARNLMLTAGKRE	0.0151

Sequence	soluble fraction (log2)
HMPEPLTARETEVLRLLSGGYSNREIAAAMFLAEGTIKNHVSAVLLKLGVRDRTRAVLRGLELGLIQ	-2.27
HMPEPPRVGETLAALRQDRALSLDELSRQAGVSKSMLSQIERNQANPTVAVVWRLANALGVPMAELLGA	-0.272
HMPGDIRKAAILLMSLPREQAAQVLARLDPKQVEAVTIEIARLGTVTPDEQEQALKEFSQANPA	0.0238
HMPGIDDAAVEHAERVLAQHIGPMARLLVRRTVPRAANLFDLHRRLGALIPESEPRTAFLSAVVT	0.0954
HMPGLSQAEAQSLLIAYLAQQGRTLELIPLGQSGDVWRFSGRESDGTVVSFFMVSRTDGTISEVPVPP	-1.06
HMPGRLSRREVEVIELTARGLPAAEMAVRLGISANTIEFHRRRIMQKLGVANAAEMVRRATELGW	-2.28
HMPGRVITVMVNGKRVDLPFREEPYIFVDLFRYMDFDVERARGRIQLAINGKKAGYTDIIREGDSIEI	-2.54
HMPGTAAQARQLKAWLKENGEKPGAALPALQKAQEIYGYVPREVQQLIADALHKPLTEIYGVSTFYSQFNL	-0.566
HMPGTPADQVAELQTKVGTETKTGDMITQDDVKLLQTALDPLAKMNDRIQAAKILESKGIVTSDGNLRT	0.0421
HMPIGENIKRLRIMHGLSQKELAQIAGVSDKAVSTWENGTKEPRMGAVQKITGYFGLKKSNLIEDNGL	-0.0452
HMPIMDSDDKYEALGIPQEWIAVVKKAGYQTVEALKAVENPNKLHQELSVMNKKEKLGLAGLTPEMVKAWL	0.321
HMPINPKVKQIYDTLKDGGADVGSEKEFNDYFFAKGKDGYNNRKEVFNTLREGGADAGKSYEEFAGWLGL	0.445
HMPIPIESEISRSPGQSIYAFVQQHYGRSGRSPADMRALVGLILRLNRQIRTPLLIPFGLVVVRPT	0.335
HMPIRVGDAFESLAGVFPDEYNKALRKSTKKPVFFVPVKVEAGSGALRQKGKITFIVKDGRIDAIQIAL	-1.41
HMPISQGATVKHNANMRKGASTKYKVTGVLQEGEEVKILSQSNGWYKIQNSDNEKGWTYNTHINASDK	0.0826
HMPKHFIDFSEGEVVSITDGPFKGFDGAISEIDNQKGKVKVMVSMFGRDTSVELDALQVKKV	0.00647
HMPKITTIHIDPEKISKVIGPGGKTVKKIIEETGAKIDIEDTGKIFIAAVNTEAANKAIDMINGIVA	0.101
HMPKLPIIYVLDGHVNKNALTTSGKNKVWIEHELKKHHINSIKDVLIAMTDTEGKFYYQLYD	-1.77
HMPKLSNNHMAVWQAIRSRTAKGEPSTRAVIRDDLKAAGMDTSKHFSRWLTKLIDLGMVVKDGENLSIR	-0.395
HMPKMISPAQIKAIGAKTNNIAKASGVEQAQVYQSAVAHLGINNKSTKELTSQEASKVIEYLSTL	0.103
HMPKPMKATKITLQQEPRIRVDFTYDPLKVQQIKTISGARWSKSLKAWHIPYTKEAFNQLKKLFPNVEIEV	-1.44
HMPKSVRQSFVYSPMYRDVEYLADFLRNNNKDDSSVSASGDKLVYYGTADEIARVKSVLKGVDV	-0.00252
HMPLIPIAIELARHALPSLIGAIAGDKSEKVAKEVVDAALKTTGKTTPDEALHALQADPQLAHEYRLSLL	0.982
HMPLKLIDVYLGRHGKKRYDVFKETGLSQQTLASANGKPAAALTGRILQAIGRTVGETPGRVLDEMLMIEQ	-1.02
HMPLLADLPNLLRKVLKQHPGRVVDVDLERGRQGREIYHVRVLQENGQVRGLFVDASTGELVS	-0.938
